Results on 6 molecules are retold here after publication PMC4495429 (Scientific Reports, 2015).

Series [1] has as its target T1, homoserine dehydrogenase (HseDH) (Pyrococcus horikoshii, UniProt O58802, K57A).
T1 construct: gene PH1075; ordered residues 1-319 in each subunit (homodimer)
T1 sequence (O58802 1-319 K57A): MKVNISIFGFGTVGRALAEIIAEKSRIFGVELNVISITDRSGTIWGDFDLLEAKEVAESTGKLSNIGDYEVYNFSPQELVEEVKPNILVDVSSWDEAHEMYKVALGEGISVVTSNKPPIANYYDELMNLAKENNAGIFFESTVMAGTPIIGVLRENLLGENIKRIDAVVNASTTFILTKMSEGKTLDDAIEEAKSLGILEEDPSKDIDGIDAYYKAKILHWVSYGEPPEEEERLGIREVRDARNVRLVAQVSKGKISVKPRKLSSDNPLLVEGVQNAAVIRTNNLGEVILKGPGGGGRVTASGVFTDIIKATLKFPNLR
The series is described as follows: crystal structure at […] Å (with NADPH). In kind it is binding.

Series [2] addresses T2, homoserine dehydrogenase (HseDH) (Pyrococcus horikoshii, UniProt O58802).
T2 sequence (O58802 1-319): T1 sequence (O58802 1-319 K57A) with A57K
The series can be described thus: inhibition of NAD-dependent Hse oxidation, Morrison tight-binding fit. On the set-up: gene PH1075; His-tagged HseDH. In kind it is biochemical.

For series [3], the target named is T3, homoserine dehydrogenase (HseDH) (Pyrococcus horikoshii, UniProt O58802, R40A).
T3 construct: gene PH1075; His-tagged HseDH
T3 sequence (O58802 1-319 R40A): T1 sequence (O58802 1-319 K57A) with R40A, A57K
The series is described as follows: FT-ICR MS of cofactor released from purified protein. In kind it is binding.

Series [4] addresses T2, homoserine dehydrogenase (HseDH). The series can be described thus: crystal structure at […] Å; FT-ICR MS of released cofactor. In kind it is binding. Set-up: gene PH1075; ordered residues 1-319 in each subunit (homodimer).
Series [5] concerns the target T1, homoserine dehydrogenase (HseDH). The series is described as follows: crystal structure at […] Å (with Hse); FT-ICR MS. Type of series: binding.
Series [6] deals with the molecule itself. The series is described as follows: SEC; gel filtration on Superose 6 10/300 GL, 10 mM Tris-HCl (pH 7.5) with 0.2 M NaCl; native mass against Bio-Rad gel filtration standards. (In general: Size exclusion chromatography separates by hydrodynamic size, large species first.)
Substrate in series [7]: NC(=O)C1=CN([C@@H]2O[C@H](COP(=O)(O)OP(=O)(O)OC[C@H]3O[C@@H](n4cnc5c(N)ncnc54)[C@H](O)[C@@H]3O)[C@@H](O)[C@H]2O)C=CC1
The series is described as follows: purified protein. The note with it: varied: cofactor.

Substrate in series [8]: N[C@@H](CCO)C(=O)O
The series is described as follows: purified protein. Conditions: NAD.

Substrate in series [9]: NC(=O)c1ccc[n+]([C@@H]2O[C@H](COP(=O)([O-])OP(=O)(O)OC[C@H]3O[C@@H](n4cnc5c(N)ncnc54)[C@H](O)[C@@H]3O)[C@@H](O)[C@H]2O)c1
The series is described as follows: purified protein. In kind it is biochemical, Pyrococcus horikoshii. The note with it: varied: cofactor.

Substrate in series [10]: NC(=O)c1ccc[n+]([C@@H]2O[C@H](COP(=O)(O)OP(=O)(O)OC[C@H]3O[C@@H](n4cnc5c(N)ncnc54)[C@H](OP(=O)(O)O)[C@@H]3O)[C@@H](O)[C@H]2O)c1
The series is described as follows: purified protein. In kind it is biochemical, Pyrococcus horikoshii. Conditions: varied: cofactor.

Series [11] deals with the molecule itself. The series is described as follows: crystal structure; sitting-drop vapor diffusion at 20 °C; wild type: 0.1 M potassium phosphate pH 6.2, 20% MPD; K57A with 1 mM Hse: 16% PEG monomethyl ether 2000, 0.1 M citrate pH 6.5; one homodimer in the asymmetric unit.

Substitutions are numbered along the chain they refer to. Numbers in names are those of the source.

With `N[C@@H](CCO)C(=O)O` [Hse], the “crystal structure at 2.43 Å (with NADPH)” value in series [1] is “extra density within the active site cavity, and after construction and refinement of the peptide chain, a Hse molecule could be modeled”.

One may read the Ki as a measure of affinity in units of concentration, obtained from inhibition or displacement. On to `NC(=O)c1ccc[n+]([C@@H]2O[C@H](COP(=O)(O)OP(=O)(O)OC[C@H]3O[C@@H](n4cnc5c(N)ncnc54)[C@H](OP(=O)(O)O)[C@@H]3O)[C@@H](O)[C@H]2O)c1` [NADP], for which the affinity in [2] corresponds to a Ki of 5.2 ± 0.1 nM.

As for `NC(=O)C1=CN([C@@H]2O[C@H](COP(=O)(O)OP(=O)(O)OC[C@H]3O[C@@H](n4cnc5c(N)ncnc54)[C@H](OP(=O)(O)O)[C@@H]3O)[C@@H](O)[C@H]2O)C=CC1` [NADPH], the “FT-ICR MS of cofactor released from purified protein” value in series [3] is given as “indicating that NADPH tightly bound to R40A, as in the case of the wild type enzyme”. Besides, the “crystal structure at 2.30 Å; FT-ICR MS of released cofactor” value in series [4] is “These results demonstrate that the molecule bound to P. horikoshii HseDH is NADPH”. Further, the “crystal structure at 2.43 Å (with Hse); FT-ICR MS” value in series [5] is reported as “we observed a clear density corresponding to the cofactor bound within the nucleotide-binding site”.

B1: Pyrococcus horikoshii homoserine dehydrogenase (HseDH), His-tagged wild type (enzyme, UniProt O58802 1-319, looked up)
chain: T1 sequence (O58802 1-319 K57A) with A57K
notes: Homoserine dehydrogenase, Pyrococcus horikoshii, open reading frame PH1075; amplified from the initiation codon to the termination codon; ordered residues 1-319 in each subunit of the crystal; calculated molecular weight 36,925; Expressed from pColdI (construct pCHseDH); the vector probably adds an N-terminal His6 tag with a factor Xa site (surmised); no tag removal is described; also called P. …
What is called stoichiometry N is the number of molecules, sites or subunits per partner or assembly. As a reminder, the Km is the concentration of substrate that gives half-maximal velocity. Broadly, the Vmax is the top rate of the reaction or transport when substrate is in excess. The term kcat denotes the maximal rate divided by the concentration of active sites. Usually kcat/Km stands for the turnover number divided by the Michaelis constant. In the case of B1, the “stoichiometry N” value in series [6] is 2. Besides, the Km in the series “purified protein [7]” amounted to 19 ± 10 µM. In addition, the Km in the series “purified protein [8]” was determined as 6100 ± 100 µM. Besides, in the series “purified protein [9]”, the Km was 320 ± 40 µM, the Vmax stood at 114 µmol/min/mg, the kcat worked out at 70.1 ± 4.5 s⁻¹ and the kcat/Km turned out to be 219000 ± 13000 M⁻¹ s⁻¹.

B2: homoserine dehydrogenase (HseDH) (Pyrococcus horikoshii OT3; R40A) (protein)
chain: T1 sequence (O58802 1-319 K57A) with R40A, A57K
notes: His-tagged HseDH
Turning to B2, in “purified protein [10]”, the Km turned out to be 40 ± 10 µM, the Vmax came out at 5.5 µmol/min/mg, the kcat turned out to be 3.4 ± 0.2 s⁻¹ and the kcat/Km worked out at 89100 ± 900 M⁻¹ s⁻¹.

B3: Pyrococcus horikoshii homoserine dehydrogenase (HseDH) K57A mutant, His-tagged (enzyme, UniProt O58802 1-319, looked up)
chain: T1 sequence (O58802 1-319 K57A)
notes: Homoserine dehydrogenase, Pyrococcus horikoshii, open reading frame PH1075, with K57A made by site-directed mutagenesis of pCHseDH; ordered residues 1-319 in each subunit of the crystal; Made from pCHseDH (pColdI); the vector probably adds an N-terminal His6 tag (surmised); Crystallized with Hse; source: E. coli BL21 (DE3) codon plus-RIPL, purified (same method as the His-tagged wild type)
For B3, in [11], the binding result was “binds”. Moreover, in the series “purified protein [10]”, the Km came to 60 ± 10 µM, the Vmax was determined as 43.3 µmol/min/mg, the kcat came to 26.7 ± 0.2 s⁻¹ and the kcat/Km worked out at 518000 ± 29000 M⁻¹ s⁻¹.
